From US20120277144A1 (published 2012)

Biological target: Rac1 (human, UniProt P63000 1-189)
Assay: co-immunoprecipitation with anti-FGD5 antibody from lysates of FGD5 overexpressing HUVECs, western blot
Protocol: GTP-RhoA, Rac1, and cdc42 activation levels were measured using the G-lisa detection system (Tebu-Bio, The Netherlands). For FGD5-protein complex co-immunoprecipitation, magnetic beads (Dynabeads, Invitrogen, The Netherlands) were coated and cross-linked with 2.5 μg anti-FGD5 antibody (Bioscience, The Netherlands) before immunoprecipitation overnight at 4° C. with protein cell lysates of transfected HUVECs (50 μg total protein of a volume of 100 μl incubation buffer). Beads were washed and the protein samples were eluted with eluation buffer (Invitrogen, The Netherlands) before analysis by western blot.

B1: FYVE, RhoGEF and PH domain-containing 5 (FGD5) (enzyme)
chain: MFRGPKPPIAPKPRLTAPNEWRASVYLNDSLNKCSNGRLPCVDRGLDEGPRSIPKCSESETDEDYIVVPRVPLREDEPKDEGSVGNKALVSPESSAEEEEEREEGGEACGLEGTGAGEDSVAPAAPGAGALSREGEEGTDLALEDEGEGCADEPGTLEQVSRSEEEEKLVQPHRECSLEDSGPWAGEGVFQSDLLLPHIHGEDQEPPDTPGEAEEDDEEGCASTDPAGADEGSGPDRPTEDMGQDAEDTSEEPPEKEELAGVQEAETATDCPEVLEEGCEEATGVTGGEQVDLSEPPDHEKKTNQEVAAATLEDHAQDESAEESCQIVPFENDCMEDFVTSLTGSPYEFFPTESTSFCSESCSPLSESAKGLESEQAPKLGLRAEENPMVGALCGQCGSLQGGAAEGPAAPDVVVVLEEEALDDALANPYVMGVGLPGQAAPGEGGQAASDALGGYGSKEELNCEAEGGLVPADRKNTSTRVRPHSGKVAGYVPETVPEETGPEAGSSAPGIGGAAEEVGKTLLSLEGKPLEASRALPAKPRAFTLYPRSFSVEGREIPVSVYQEPEGSGLDDHRIKRKEDNLSLSCVIGSSGSFSQRNHLPSSGTSTPSSMVDIPPPFDLACITKKPITKSSPSLLIESDSPDKYKKKKSSFKRFLALTFKKKTENKLHVDVNVSSSRSSSESSYHGPSRILEVDRRSLSNSPQLKSRTGKLRASESPSSLIFYRDGKRKGVPFSRTVSRVESFEDRSRPPFLPLPLTKPRSISFPSADTSDYENIPAMNSDYENIQIPPRRPARAGAFTKLFEDQSRALSTANENDGYVDMSSFNAFESKQQSADQDAESAYTEPYKVCPISSAAPKEDLTSDEEQRSSEEEDSASRDPSVTHKVEGQSRALVIAQELLSSEKAYVEMLQHLNLDFHGAVMRALDDMDHEGRDTLAREELRQGLSELPAIHDLHQGILEELEERLSNWESQQKVADVFLAREQGFDHHATHILQFDRYLGLLSENCLHSPRLAAAVREFEQSVQGGSQTAKHRLLRVVQRLFQYQVLLTDYLNNLCPDSAEYDNTQGALSLISKVTDRANDSMEQGENLQKLVHIEHSVRGQGDLLQPGREFLKEGTLMKVTGKNRRPRHLFLMNDVLLYTYPQKDGKYRLKNTLAVANMKVSRPVMEKVPYALKIETSESCLMLSASSCAERDEWYGCLSRALPEDYKAQALAAFHHSVEIRERLGVSLGERPPTLVPVTHVMMCMNCGCDFSLTLRRHHCHACGKIVCRNCSRNKYPLKYLKDRMAKVCDGCFGELKKRGRAVPGLMRERPVSMSFPLSSPRFSGSAFSSVFQSINPSTFKKQKKVPSALTEVAASGEGSAISGYLSRCKRGKRHWKKLWFVIKGKVLYTYMASEDKVALESMPLLGFTIAPEKEEGSSEVGPIFHLYHKKTLFYSFKAEDTNSAQRWIEAMEDASVL
notes: Guanine-nucleotide exchange factor; The co-IP used lysates of HUVECs transfected with adenovirus encoding human FGD5 cDNA; also called Ad-FGD5 transgene product
Does B1 bind?
Result: no binding
